B1: HIV-1 Rev (recombinant construct with N-terminal extension, both native cysteines changed to serine, labeled with Alexa-Fluor 555) (natural protein)
chain: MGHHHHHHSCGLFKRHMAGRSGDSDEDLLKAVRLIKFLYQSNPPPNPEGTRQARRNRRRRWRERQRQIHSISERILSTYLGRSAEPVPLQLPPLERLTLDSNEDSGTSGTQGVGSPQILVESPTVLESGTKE

Assays:
[1] = biological target: Rev (Human immunodeficiency virus 1) (UniProt P04325); assay: fluorescence; conditions: cited from earlier work
[2] = biological target: the molecule itself; assay: single-molecule TIRF fluorescence microscopy

Molecule	Kd [1] [nM]	Kd [2] [nM]	stoichiometry N [2] [Rev monomers on one RRE]
DDX1 (from UniProt Q92499)	36		
B1		~1.5	≤ 8

Reference: publication PMC3140434 (Journal of molecular biology, 2011)
